{"source": "the supplement of paper PMC12042874", "assay": "amyloid nucleation score (Sup35N fusion, yeast selection) (log enrichment); library NNK2; higher = more nucleation; inactive = no reads after selection", "procedure,_shortened": "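Peptides of 20 random codons fused to Sup35N were expressed in psi-negative yeast, induced 24 hours with 100 μM copper sulfate, then grown 7 days at 30°C on medium lacking adenine and uracil. Input and output plasmid inserts were Illumina-sequenced. Nucleation score is the DiMSum log enrichment of output over input reads, centred on the mode score of non-aggregating sequences, excluding sequences with under 100 input reads. Random libraries had three technical output replicates.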", "note": "± gives the uncertainty stated by the source.", "data": [{"substance": "DDVYNSGYKELIRSQ", "values": [{"measurement": "amyloid nucleation score", "result": "0.348 ± 0.25"}]}, {"substance": "FAIRYTVMTLFCIRLGLLKV", "values": [{"measurement": "amyloid nucleation score", "result": "-0.707 ± 0.27"}]}, {"substance": "IETCKKAHRSKYTLFGLLLY", "values": [{"measurement": "amyloid nucleation score", "result": "-0.383 ± 0.63"}]}, {"substance": "HPMQLLTSAQIKG", "values": [{"measurement": "amyloid nucleation score", "result": "0.863 ± 0.41"}]}, {"substance": "AMDMI", "values": [{"measurement": "amyloid nucleation score", "result": "0.833 ± 0.8"}]}, {"substance": "SSAYQMSEY", "values": [{"measurement": "amyloid nucleation score", "result": "0.072 ± 1.1"}]}, {"substance": "IMYCCVMLIFTMSVVEWGFT", "values": [{"measurement": "amyloid nucleation score", "result": "-0.383 ± 1"}]}, {"substance": "LWPVCALDEGL", "values": [{"measurement": "amyloid nucleation score", "result": "0.669 ± 0.62"}]}, {"substance": "IHYFRTWVYHYGLRGFGIIR", "values": [{"measurement": "amyloid nucleation score", "result": "0.918 ± 0.58"}]}, {"substance": "YNYLLLSMVPSSILSRSYVQ", "values": [{"measurement": "amyloid nucleation score", "result": "-0.161 ± 1.1"}]}, {"substance": "IFCRIDYIYVYLHHVYVTVQ", "values": [{"measurement": "amyloid nucleation score", "result": "5.228 ± 0.036"}]}, {"substance": "SKFFCVSSVRFRLCVWG", "values": [{"measurement": "amyloid nucleation score", "result": "-0.14 ± 1"}]}, {"substance": "KECRYID", "values": [{"measurement": "amyloid nucleation score", "result": "inactive"}]}, {"substance": "PADPNCIFVIS", "values": [{"measurement": "amyloid nucleation score", "result": "-1.25 ± 0.44"}]}, {"substance": "WLPYTCNFVMTVSRYSSMRG", "values": [{"measurement": "amyloid nucleation score", "result": "inactive"}]}, {"substance": "QCLQCGP", "values": [{"measurement": "amyloid nucleation score", "result": "-0.553 ± 0.49"}]}, {"substance": "SRDCVRDLSVMCSLWKWFPV", "values": [{"measurement": "amyloid nucleation score", "result": "-0.394 ± 1.1"}]}, {"substance": "TFLQPTLEVSLL", "values": [{"measurement": "amyloid nucleation score", "result": "-0.612 ± 0.48"}]}, {"substance": "FMVACHCCHTSCEYNFGNTV", "values": [{"measurement": "amyloid nucleation score", "result": "3.96 ± 0.13"}]}, {"substance": "VCDRFWFSLDLWLFIRTFRF", "values": [{"measurement": "amyloid nucleation score", "result": "-0.679 ± 1.1"}]}, {"substance": "SDHMYMIFMTMFVVVSHWVI", "values": [{"measurement": "amyloid nucleation score", "result": "-0.795 ± 0.76"}]}, {"substance": "HIIASCTV", "values": [{"measurement": "amyloid nucleation score", "result": "1.18 ± 0.38"}]}, {"substance": "VRLLGYIWKLLPHVVNQKV", "values": [{"measurement": "amyloid nucleation score", "result": "0.31 ± 0.46"}]}, {"substance": "YYSLY", "values": [{"measurement": "amyloid nucleation score", "result": "-0.904 ± 0.36"}]}, {"substance": "FVSGRVQLQASGLVRGNRWV", "values": [{"measurement": "amyloid nucleation score", "result": "inactive"}]}, {"substance": "NRTTSVWG", "values": [{"measurement": "amyloid nucleation score", "result": "-0.889 ± 1"}]}, {"substance": "NGNTVVLGSLIFYKLVLVAS", "values": [{"measurement": "amyloid nucleation score", "result": "5.64 ± 0.033"}]}, {"substance": "IPTACEHKRSPRVQPQRNSA", "values": [{"measurement": "amyloid nucleation score", "result": "0.163 ± 0.4"}]}, {"substance": "CILEHRSEQWYCYLWPARRG", "values": [{"measurement": "amyloid nucleation score", "result": "4.24 ± 0.078"}]}, {"substance": "DTVALCNWLMRLESFSFAGQ", "values": [{"measurement": "amyloid nucleation score", "result": "1.83 ± 0.19"}]}, {"substance": "RRAGNIVLECSG", "values": [{"measurement": "amyloid nucleation score", "result": "3.68 ± 0.11"}]}, {"substance": "LISWFWWENLKLCCSIFCFI", "values": [{"measurement": "amyloid nucleation score", "result": "4.4 ± 0.051"}]}, {"substance": "LSLYFFDL", "values": [{"measurement": "amyloid nucleation score", "result": "1.06 ± 0.36"}]}, {"substance": "TAKLFDISTCKCPD", "values": [{"measurement": "amyloid nucleation score", "result": "-0.105 ± 0.79"}]}, {"substance": "RMLGALFGMHVNYRAVSELF", "values": [{"measurement": "amyloid nucleation score", "result": "1.49 ± 0.12"}]}, {"substance": "TTMWYTS", "values": [{"measurement": "amyloid nucleation score", "result": "-0.837 ± 1.1"}]}, {"substance": "YNKGNACISGYYGCSLA", "values": [{"measurement": "amyloid nucleation score", "result": "7.41 ± 0.083"}]}, {"substance": "YNVDTVYLRGSLLRSYDWCF", "values": [{"measurement": "amyloid nucleation score", "result": "-2.32 ± 1.1"}]}, {"substance": "CCICKSRHLFDWKNDEWTSI", "values": [{"measurement": "amyloid nucleation score", "result": "-0.45 ± 0.63"}]}, {"substance": "VIGAGCIEKQRTVEAGGCRG", "values": [{"measurement": "amyloid nucleation score", "result": "1.23 ± 0.35"}]}, {"substance": "NVLDVGVGRTFVFK", "values": [{"measurement": "amyloid nucleation score", "result": "-0.291 ± 0.79"}]}, {"substance": "KYTVSLVDLGCFQSKGCDST", "values": [{"measurement": "amyloid nucleation score", "result": "inactive"}]}, {"substance": "VVDSTVGRADGTCGGVVGFA", "values": [{"measurement": "amyloid nucleation score", "result": "0.87 ± 0.41"}]}, {"substance": "NVMFF", "values": [{"measurement": "amyloid nucleation score", "result": "1.28 ± 0.13"}]}, {"substance": "NPLAIVAS", "values": [{"measurement": "amyloid nucleation score", "result": "-1.77 ± 0.78"}]}, {"substance": "KLCKF", "values": [{"measurement": "amyloid nucleation score", "result": "3.27 ± 0.073"}]}, {"substance": "EDTMFHNFQWSKAYLCYYWF", "values": [{"measurement": "amyloid nucleation score", "result": "-0.294 ± 1.1"}]}, {"substance": "HILMKN", "values": [{"measurement": "amyloid nucleation score", "result": "-0.013 ± 0.42"}]}, {"substance": "LYSLWQKRGRRGSYVSPAGS", "values": [{"measurement": "amyloid nucleation score", "result": "2.88 ± 0.13"}]}, {"substance": "FGESTSEGYA", "values": [{"measurement": "amyloid nucleation score", "result": "3.33 ± 0.12"}]}, {"substance": "LVVSI", "values": [{"measurement": "amyloid nucleation score", "result": "-0.876 ± 0.78"}]}, {"substance": "VDRRNAKYWRGRKSTWVRGV", "values": [{"measurement": "amyloid nucleation score", "result": "1.3 ± 0.26"}]}, {"substance": "AWRAYITILGKDHAVSVSGL", "values": [{"measurement": "amyloid nucleation score", "result": "0.715 ± 0.43"}]}, {"substance": "PYGVSPWVRVVSCSIEGNWT", "values": [{"measurement": "amyloid nucleation score", "result": "-0.289 ± 0.25"}]}, {"substance": "RGQMRLQRRLPKLRTSGKLQ", "values": [{"measurement": "amyloid nucleation score", "result": "1.49 ± 0.34"}]}, {"substance": "FTMYPITG", "values": [{"measurement": "amyloid nucleation score", "result": "0.311 ± 0.29"}]}, {"substance": "ILIREPLHDIGNVNLLVRSS", "values": [{"measurement": "amyloid nucleation score", "result": "-0.359 ± 0.48"}]}, {"substance": "DLYRYNMLKDVV", "values": [{"measurement": "amyloid nucleation score", "result": "4.403 ± 0.037"}]}, {"substance": "RWHFDYRVKQV", "values": [{"measurement": "amyloid nucleation score", "result": "-0.058 ± 0.37"}]}, {"substance": "INGNFVIKKCYRGYVS", "values": [{"measurement": "amyloid nucleation score", "result": "-0.557 ± 1.1"}]}, {"substance": "NAQYGRCSLWCPCPTVWTA", "values": [{"measurement": "amyloid nucleation score", "result": "2.24 ± 0.25"}]}, {"substance": "CLAVSSDVDSQGKGIRIYIL", "values": [{"measurement": "amyloid nucleation score", "result": "-1.24 ± 1.1"}]}, {"substance": "FDVVIGMFVNLITRSKCGEW", "values": [{"measurement": "amyloid nucleation score", "result": "1.61 ± 0.53"}]}, {"substance": "RSMISRAIYWQSWSTREERT", "values": [{"measurement": "amyloid nucleation score", "result": "1.86 ± 0.093"}]}, {"substance": "TMSHEFV", "values": [{"measurement": "amyloid nucleation score", "result": "0.085 ± 0.6"}]}, {"substance": "SMIIQTQHI", "values": [{"measurement": "amyloid nucleation score", "result": "0.024 ± 0.55"}]}, {"substance": "VFWHMSIIHIVCRIILSKDW", "values": [{"measurement": "amyloid nucleation score", "result": "inactive"}]}, {"substance": "VTDRNIRLDPVALKHASVYG", "values": [{"measurement": "amyloid nucleation score", "result": "-0.368 ± 0.38"}]}, {"substance": "KWGRCSIGT", "values": [{"measurement": "amyloid nucleation score", "result": "inactive"}]}, {"substance": "CNVLSRRNGKLRACFS", "values": [{"measurement": "amyloid nucleation score", "result": "0.732 ± 0.4"}]}, {"substance": "TIILMGYLFWICRQSVR", "values": [{"measurement": "amyloid nucleation score", "result": "-0.449 ± 0.38"}]}, {"substance": "PRPFGKNWVKKDLNCLHKLN", "values": [{"measurement": "amyloid nucleation score", "result": "-0.251 ± 0.35"}]}, {"substance": "FLDAFFFGWDVVVRVYSSAP", "values": [{"measurement": "amyloid nucleation score", "result": "-0.153 ± 1.1"}]}, {"substance": "KMLCYMYVVTHNVTLRHRLY", "values": [{"measurement": "amyloid nucleation score", "result": "0.196 ± 0.42"}]}, {"substance": "ALCIAGTLLYMANLISTLHG", "values": [{"measurement": "amyloid nucleation score", "result": "0.439 ± 0.36"}]}, {"substance": "MTLIAVDSLSYLWANDNRRG", "values": [{"measurement": "amyloid nucleation score", "result": "0.353 ± 0.36"}]}, {"substance": "KWRDRNDINNFRQGLLCSVN", "values": [{"measurement": "amyloid nucleation score", "result": "3.03 ± 0.14"}]}, {"substance": "CLFVTVGFCICCLFFLWFCL", "values": [{"measurement": "amyloid nucleation score", "result": "5 ± 0.1"}]}, {"substance": "SSLFMTIWDSFSPI", "values": [{"measurement": "amyloid nucleation score", "result": "-0.186 ± 0.45"}]}, {"substance": "KSPFVICGKRDVRK", "values": [{"measurement": "amyloid nucleation score", "result": "-1.28 ± 1.1"}]}, {"substance": "HSHPCDREFLPRMHAWLDSS", "values": [{"measurement": "amyloid nucleation score", "result": "-0.135 ± 0.33"}]}, {"substance": "KRKKQKFAMLYVSGNLLRRD", "values": [{"measurement": "amyloid nucleation score", "result": "0.234 ± 0.28"}]}, {"substance": "SVLQTTFVLVVGKTYNTSTD", "values": [{"measurement": "amyloid nucleation score", "result": "2.94 ± 0.072"}]}, {"substance": "FNLMSMIRNRH", "values": [{"measurement": "amyloid nucleation score", "result": "-0.548 ± 0.79"}]}, {"substance": "PVLYFLGLSMVDNTITRSTA", "values": [{"measurement": "amyloid nucleation score", "result": "-0.763 ± 0.34"}]}, {"substance": "LAWWFY", "values": [{"measurement": "amyloid nucleation score", "result": "-0.325 ± 0.76"}]}, {"substance": "HVVTRVSFESVFCLFTYF", "values": [{"measurement": "amyloid nucleation score", "result": "3.83 ± 0.085"}]}]}
